Where a SMILES comes first, the peptide text is derived from it. Where no end group is shown, it is not given here.
Key:
Format in all cases: physicochemical
[1] = Example 1: peptide cocktail preparation standing at room temperature for 6 hours; settings: for HPLC analysis: peptide concentration: in peptide cocktail preparation of Example 1 (with GM-CSF); for HPLC analysis: % vs T0: in peptide cocktail preparation of Example 1, T = 6 hours
Method: Using the lyophilized peptide preparations produced in Preparation Example 1, a peptide cocktail preparation to be administered was prepared as follows. First, 1 mL of purified water was added to each lyophilized peptide preparation, and the lyophilized product in the vial was dissolved to prepare a peptide solution. All the peptide solutions were collected from the respective vials and transferred to a different vial to provide a peptide cocktail preparation. Also, a GM-CSF lyophilized preparation (product name: Lukine ([…]), Sanofi) was dissolved in 1 mL of purified water and 0.6 mL of the solution thus obtained was added as an adjuvant to 1.4 mL of the peptide cocktail preparation to provide a peptide cocktail preparation to be administered. Then, the peptide cocktail preparation thus obtained was allowed to stand at room temperature for 6 hours, and evaluated for changes in peptide concentration, pH (25° C.), and osmotic pressure compared with those before standing.

[2] = Test Example 2: solubility of SEQ ID NO: 1 in glycine-HCl buffers; settings: for result (solubility): 270 mM trehalose, 24 hours
Method: The solubility of the peptide drug substance of SEQ ID NO: 1 (purity 95 w/w % or more, PPL) was examined as described below. First, 10 to 500 mM glycine-HCl buffers containing 270 mM trehalose from pH 2.5 to 3.5 were prepared, and the peptide drug substance was added to 2 mL of each buffer so that the peptide concentration was 10 to 25 mg/mL.

[3] = Test Example 1: examination of peptide solubility in citrate/phosphate buffers; settings: for result (whether peptide drug substance was dissolved): room temperature 24 hours
Method: The solubility of a peptide drug substance (purity 95 w/w % or more, PPL) was examined for the peptides Asn-Val-Leu-His-Phe-Phe-Asn-Ala-Pro-Leu (SEQ ID NO: 1), Ala-Ser-Leu-Asp-Ser-Asp-Pro-Trp-Val (SEQ ID NO: 2), Lys-Leu-Lys-His-Tyr-Gly-Pro-Gly-Trp-Val (SEQ ID NO: 3), and Leu-Leu-Gln-Ala-Glu-Ala-Pro-Arg-Leu (SEQ ID NO: 4), respectively. First, 10 mM citrate buffers (Citrate) or phosphate buffers (Phosphate) containing 270 mM trehalose from pH 3.0 to pH 8.0 were prepared and the peptide drug substance was added to each buffer so as to provide a predetermined peptide concentration. The mixture was stirred and allowed to stand at room temperature for 24 hours to evaluate whether the peptide drug substance was dissolved.

[4] = Test Example 3: peptide stability in solution (HPLC); settings: for % difference vs T = 0 / Conc.: buffers as Table 3; for T0 Conc.: time of preparation, buffers: SEQ1 pH 3.5 50 mM Gly-HCl + 200 mM trehalose, SEQ2 pH 4.0, SEQ3 pH 7.0, SEQ4 pH 6.0 in 10 mM citrate + 270 mM trehalose
Method: Based on the results of Test Example 1 and Test Example 2, the stability of the peptides was examined. First, peptide drug substances (purity 95 w/w % or more, PPL) were dissolved in the buffers shown in Table 3, respectively, to prepare peptide solutions of the peptides of SEQ ID NOs: 1 to 4 at the final concentration of 10 mg/mL. […] In the evaluation, samples were collected at the time of preparation of the peptide solution, after 24 hours, and after 48 hours, and stored at −20° C. The peptide concentration was measured by HPLC after all the samples were collected, and compared with the peptide concentration at the time of preparation (T=0).

[5] = Preparation Example 2: stability of lyophilized peptide cocktail preparation; settings: T = 1 (1 month at 25° C., humidity 60%)
Method: To produce a lyophilized peptide cocktail preparation and confirm the stability of the preparation, 500 mL of a peptide cocktail preparation was prepared in the same manner as in Example 1, and then the preparation was aseptically filled to a glass vial at 1 mL per vial and lyophilized to provide a lyophilized peptide cocktail preparation. Then, immediately after the preparation (T=0) or after storage at room temperature (25° C., humidity 60%) for 1 month from the preparation (T=1), 1 mL of purified water was added to the lyophilized preparation to dissolve the peptides. Appearance, solubility, peptide stability, and pH were evaluated.

For `CC(C)C[C@H](NC(=O)[C@@H]1CCCN1C(=O)[C@H](C)NC(=O)[C@H](CC(N)=O)NC(=O)[C@H](Cc1ccccc1)NC(=O)[C@H](Cc1ccccc1)NC(=O)[C@H](Cc1c[nH]cn1)NC(=O)[C@H](CC(C)C)NC(=O)[C@@H](NC(=O)[C@@H](N)CC(N)=O)C(C)C)C(=O)O` [SEQ ID NO: 1, Asn-Val-Leu-His-Phe-Phe-Asn-Ala-Pro-Leu] (H-NVLHFFNAPL-OH; N-terminus and C-terminus assumed), the “stability / precipitation in the cocktail preparation” value ([1]; pH 4.9) was “stable without precipitation”, the “result (solubility)” value ([2]; glycine-HCl buffer pH 2.5, glycine 10 mM (0.75 mg/mL), final conc. of peptide 20 mg/mL, mass ratio peptide/glycine 26.67) was “dissolved” and the “result (solubility)” value ([2]; glycine-HCl buffer pH 3, glycine 10 mM (0.75 mg/mL), final conc. of peptide 20 mg/mL, mass ratio 26.67) was “dissolved”. The “result (solubility)” value ([2]; glycine-HCl buffer pH 3.5, glycine 10 mM (0.75 mg/mL), final conc. of peptide 20 mg/mL, mass ratio 26.67) was “dissolved”, the “result (solubility)” value ([2]; glycine-HCl buffer pH 3.5, glycine 50 mM (3.75 mg/mL), final conc. of peptide 10 mg/mL, mass ratio 2.67) was “dissolved” and the “result (solubility)” value ([2]; glycine-HCl buffer pH 3.5, glycine 50 mM (3.75 mg/mL), final conc. of peptide 25 mg/mL, mass ratio 6.67) was “white turbid”. For the same compound, the “result (solubility)” value ([2]; glycine-HCl buffer pH 3.5, glycine 100 mM (7.5 mg/mL), final conc. of peptide 10 mg/mL, mass ratio 1.33) was “dissolved”, the “result (solubility)” value ([2]; glycine-HCl buffer pH 3.5, glycine 100 mM (7.5 mg/mL), final conc. of peptide 25 mg/mL, mass ratio 3.33) was “white turbid” and the “result (solubility)” value ([2]; glycine-HCl buffer pH 3.5, glycine 200 mM (15 mg/mL), final conc. of peptide 10 mg/mL, mass ratio 0.67) was “dissolved”. The “result (solubility)” value ([2]; glycine-HCl buffer pH 3.5, glycine 300 mM (22.5 mg/mL), final conc. of peptide 10 mg/mL, mass ratio 0.44) was “dissolved”, the “result (solubility)” value ([2]; glycine-HCl buffer pH 3.5, glycine 500 mM (37.5 mg/mL), final conc. of peptide 25 mg/mL, mass ratio 0.67) was “white turbid” and the “solubility (summary of Table 2)” value ([2]; peptide concentration of 25 mg/mL, even when glycine concentration was 500 mM) was “could not be dissolved”. For the same compound, the “solubility (summary of Table 1)” value ([3]; any of the conditions (pH 3.0 to 8.0), final concentration of 20 mg/mL) was “could not be dissolved”.

In the case of “Ala-Ser-Leu-Asp-Ser-Asp-Pro-Trp-Val (ASLDSDPWV) [SEQ ID NO: 2]”, the “HPLC analysis: peptide concentration” value ([1]; T = 0 hour) is reported as “SEQ ID NO: 2: 2.7 mg/mL”, the “HPLC analysis: peptide concentration” value ([1]; T = 6 hours, room temperature) is reported as 2.8 mg/mL and the “HPLC analysis: % vs T0” value ([1]; room temperature) is reported as 107.0%. For the same compound, the “% difference vs T = 0” value ([4]; T = 24 h, 25° C./60% RH) was 0%, the Conc. ([4]; T = 24 h, 25° C./60% RH) was 10850 µg/mL and the “% difference vs T = 0” value ([4]; T = 24 h, 40° C./75% RH) was −6%. For the same compound, the Conc. ([4]; T = 24 h, 40° C./75% RH) was 10240 µg/mL, the “% difference vs T = 0” value ([4]; T = 48 h, 25° C./60% RH) was −5% and the Conc. ([4]; T = 48 h, 25° C./60% RH) was 10370 µg/mL. The “% difference vs T = 0” value ([4]; T = 48 h, 40° C./75% RH) was −20%, the Conc. ([4]; T = 48 h, 40° C./75% RH) was 8760 µg/mL and the degraded ([4]; stored at 75% humidity for 48 hours) was 20%. For the same compound, the “T0 Conc.” value [4] was 10.89 mg/mL, the “change in peptide amount % vs T = 0 (100%) (HPLC analysis)” value [5] was “SEQ ID NO: 2: 100.4%” and the “result (whether peptide drug substance was dissolved)” value ([3]; 10 mM Citrate pH 3.0, 270 mM trehalose, final conc. 66.67 mg/mL) was “dissolved”. For the same compound, the “result (whether peptide drug substance was dissolved)” value ([3]; 10 mM Citrate pH 3.5, 270 mM trehalose, final conc. 66.67 mg/mL) was “dissolved”, the “result (whether peptide drug substance was dissolved)” value ([3]; 10 mM Citrate pH 4.0, 270 mM trehalose, final conc. 100 mg/mL) was “dissolved” and the “result (whether peptide drug substance was dissolved)” value ([3]; 10 mM Citrate pH 5.0, 270 mM trehalose, final conc. 100 mg/mL) was “dissolved”. For the same compound, the “result (whether peptide drug substance was dissolved)” value ([3]; 10 mM Citrate pH 6.0, 270 mM trehalose, final conc. 100 mg/mL) was “dissolved”, the “result (whether peptide drug substance was dissolved)” value ([3]; 10 mM Phosphate pH 7.0, 270 mM trehalose, final conc. 100 mg/mL) was “dissolved” and the “result (whether peptide drug substance was dissolved)” value ([3]; 10 mM Phosphate pH 7.5, 270 mM trehalose, final conc. 100 mg/mL) was “dissolved”. The “result (whether peptide drug substance was dissolved)” value ([3]; 10 mM Phosphate pH 8.0, 270 mM trehalose, final conc. 100 mg/mL) was “dissolved”.

For KLKHYGPGWV [SEQ ID NO: 3], the “HPLC analysis: peptide concentration” value ([1]; T = 0 hour) was “SEQ ID NO: 3: 2.5 mg/mL”, the “HPLC analysis: peptide concentration” value ([1]; T = 6 hours, room temperature) was 2.7 mg/mL and the “HPLC analysis: % vs T0” value ([1]; room temperature) was 107.7%. The “% difference vs T = 0” value ([4]; T = 24 h, 25° C./60% RH) was 2%, the Conc. ([4]; T = 24 h, 25° C./60% RH) was 11420 µg/mL and the “% difference vs T = 0” value ([4]; T = 24 h, 40° C./75% RH) was 4%. For the same compound, the Conc. ([4]; T = 24 h, 40° C./75% RH) was 11700 µg/mL, the “% difference vs T = 0” value ([4]; T = 48 h, 25° C./60% RH) was 4% and the Conc. ([4]; T = 48 h, 25° C./60% RH) was 11630 µg/mL. The “% difference vs T = 0” value ([4]; T = 48 h, 40° C./75% RH) was 4%, the Conc. ([4]; T = 48 h, 40° C./75% RH) was 11740 µg/mL and the “T0 Conc.” value [4] was 11.23 mg/mL. For the same compound, the “change in peptide amount % vs T = 0 (100%) (HPLC analysis)” value [5] was “SEQ ID NO: 3: 104.5%”, the “result (whether peptide drug substance was dissolved)” value ([3]; 10 mM Citrate pH 3.0, 270 mM trehalose, final conc. 200 mg/mL) was “dissolved” and the “result (whether peptide drug substance was dissolved)” value ([3]; 10 mM Citrate pH 3.5, 270 mM trehalose, final conc. 200 mg/mL) was “dissolved”. For the same compound, the “result (whether peptide drug substance was dissolved)” value ([3]; 10 mM Citrate pH 4.0, 270 mM trehalose, final conc. 200 mg/mL) was “dissolved”, the “result (whether peptide drug substance was dissolved)” value ([3]; 10 mM Citrate pH 5.0, 270 mM trehalose, final conc. 200 mg/mL) was “dissolved” and the “result (whether peptide drug substance was dissolved)” value ([3]; 10 mM Citrate pH 6.0, 270 mM trehalose, final conc. 200 mg/mL) was “dissolved”. For the same compound, the “result (whether peptide drug substance was dissolved)” value ([3]; 10 mM Phosphate pH 7.0, 270 mM trehalose, final conc. 200 mg/mL) was “dissolved”, the “result (whether peptide drug substance was dissolved)” value ([3]; 10 mM Phosphate pH 7.5, 270 mM trehalose, final conc. 200 mg/mL) was “dissolved” and the “result (whether peptide drug substance was dissolved)” value ([3]; 10 mM Phosphate pH 8.0, 270 mM trehalose, final conc. 200 mg/mL) was “dissolved”.
